± gives the uncertainty stated by the source.
Experiment: self-splicing fitness, log relative to wild type (ln ratio); higher = more splicing; Tetrahymena group I intron in knt gene, E. coli kanamycin selection, DiMSum; sequences stand for … in CUCUCU…GGAGGGAAAAGUUAUCAGGCAUGCACCUGGUAGCUAGUCUUUAAACCAAUAGAUUGCAUCGGUUUAAAAGGCAAGACCGUCAAAUUGCGGGAAAGGGGUCAACAGCCGUUCAGUACCAAGUCUCAGGGGAAACUUUGAGAUGGCCUUGCAAAGGGUAUGGUAAUAAGCUGACGGACAUGGUCCUAACCACGCAGCCAAGUCCUAAGUCAACAGAUCUUCUGUUGAUAUGGAUGCAGUUCACAGACUAAAUGUCGGUCGGGGAAGAUGUAUUCUUCUCAUAAGAUAUAGUCGGACCUCUCCUUAAUGGGAGCUAGCGGAUGAAGUGAUGCAACACUGGAGCCGCUGGGAACUAAUUUGUAUGCGAAAGUAUAUUGAUUAGUUUUGGAGUACUCGUGGUCG
Method in brief: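 Six replicate transformations of E. coli BL21(DE3) with a pET-22b(+) library were grown overnight at 37°C or 30°C. The library randomised all eight P1ex-region intron nucleotides, the intron lying in the knt kanamycin-resistance gene, and plates were LB agar with or without 25 μg/mL kanamycin plus 100 μg/mL carbenicillin, 50 μM IPTG and 0.2% rhamnose. Pooled colonies were amplicon-sequenced on an Illumina HiSeq 2500, and fitness is the DiMSum error-weighted combination of wild-type-normalised replicate fold changes, kanamycin versus none.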

Sequence | self-splicing fitness (ln) (30 °C) | self-splicing fitness (ln) (37 °C)
ACCCAGCAAUAUUACGCGGA | -0.326 ± 0.05 | 0.218 ± 0.064
CCAGAGCAAUAUUACGCCGC | – | -0.773 ± 0.45
AAGCAGCAAUAUUACGACUC | -0.122 ± 0.097 | 0.677 ± 0.13
CACAAGCAAUAUUACGACGU | -2.15 ± 0.086 | -0.614 ± 0.077
GAUUAGCAAUAUUACGGCGU | -0.737 ± 0.068 | -0.796 ± 0.062
CAAUAGCAAUAUUACGAUGU | -3.19 ± 0.14 | -2.32 ± 0.2
CAUCAGCAAUAUUACGCUGU | -3.65 ± 0.18 | -1.84 ± 0.15
UUCAAGCAAUAUUACGUGGC | -3.8 ± 0.19 | -1.83 ± 0.13
GCCAAGCAAUAUUACGGUUU | -1.08 ± 0.047 | -0.943 ± 0.07
AUUGAGCAAUAUUACGUGCA | -2.91 ± 0.15 | -1.85 ± 0.14
GUAGAGCAAUAUUACGUAAU | -2.04 ± 0.13 | -0.878 ± 0.12
CGUAAGCAAUAUUACGUGUU | -2.37 ± 0.1 | -3.63 ± 0.2
CCUUAGCAAUAUUACGAGAA | -2.19 ± 0.38 | -2.79 ± 0.47
AGAAAGCAAUAUUACGGCGG | -0.593 ± 0.1 | -0.586 ± 0.14
CUAGAGCAAUAUUACGAGGU | -3.26 ± 0.16 | -3.24 ± 0.3
GUAGAGCAAUAUUACGUAGC | -1.16 ± 0.19 | –
GGUCAGCAAUAUUACGUUAG | -2.17 ± 0.14 | -1.68 ± 0.18
AGGCAGCAAUAUUACGUGAU | -2.2 ± 0.14 | -0.983 ± 0.13
CGUAAGCAAUAUUACGCGCA | -1.3 ± 0.16 | -0.345 ± 0.14
AUAGAGCAAUAUUACGUCAC | -1.53 ± 0.22 | -0.0932 ± 0.22
UGGCAGCAAUAUUACGUAUA | -1.29 ± 0.097 | 0.00255 ± 0.11

Sequence | self-splicing fitness (ln) (30 °C) | self-splicing fitness (ln) (37 °C)
UAUAAGCAAUAUUACGUGUC | -3.33 ± 0.25 | -1.5 ± 0.34
AUAAAGCAAUAUUACGCUAG | -0.761 ± 0.1 | -0.165 ± 0.12
CCAUAGCAAUAUUACGCUGA | -3.52 ± 0.41 | -1.99 ± 0.28
UAUUAGCAAUAUUACGUGGU | -2.57 ± 0.15 | -2.69 ± 0.23
UAUCAGCAAUAUUACGAGCU | -2.71 ± 0.28 | -1.35 ± 0.21
CAACAGCAAUAUUACGUCAA | -3.49 ± 0.13 | -2.08 ± 0.1
ACAAAGCAAUAUUACGGAUU | -2.49 ± 0.085 | -0.946 ± 0.081
AGACAGCAAUAUUACGUACG | -1.22 ± 0.07 | -0.121 ± 0.094
ACUCAGCAAUAUUACGCAGA | -3.11 ± 0.2 | -2.55 ± 0.22
AAGUAGCAAUAUUACGGCUA | -1.01 ± 0.085 | -0.475 ± 0.095
AAACAGCAAUAUUACGUUCC | -2.55 ± 0.16 | -1.13 ± 0.19
AAUUAGCAAUAUUACGUGCA | -0.984 ± 0.096 | -0.374 ± 0.12
CUCAAGCAAUAUUACGGUGC | -4.1 ± 0.31 | -3.19 ± 0.27
CCGAAGCAAUAUUACGUUCA | -2.76 ± 0.16 | -0.988 ± 0.23
UGCCAGCAAUAUUACGUAUU | -2.8 ± 0.13 | -2.56 ± 0.16
CUCCAGCAAUAUUACGCAUG | -2.12 ± 0.08 | -1.06 ± 0.074
UUCGAGCAAUAUUACGCUCA | -2.23 ± 0.25 | -1.9 ± 0.29
AGGAAGCAAUAUUACGAGGC | -3.01 ± 0.3 | -2.31 ± 0.34
ACUCAGCAAUAUUACGCAAG | -1.89 ± 0.11 | -0.159 ± 0.087
GUGUAGCAAUAUUACGUAAA | -2.96 ± 0.21 | -0.326 ± 0.15
CUUAAGCAAUAUUACGCUAU | -1.59 ± 0.32 | -1.8 ± 0.33
